According to publication PMC3625992 (Structure (London, England : 1993), 2012):

Biological target: T1, helicase and C-terminal regulatory domains of human RIG-I (helicase-CTD; residues 230–925) (human, UniProt O95786 230-925)
T1 sequence (looked up): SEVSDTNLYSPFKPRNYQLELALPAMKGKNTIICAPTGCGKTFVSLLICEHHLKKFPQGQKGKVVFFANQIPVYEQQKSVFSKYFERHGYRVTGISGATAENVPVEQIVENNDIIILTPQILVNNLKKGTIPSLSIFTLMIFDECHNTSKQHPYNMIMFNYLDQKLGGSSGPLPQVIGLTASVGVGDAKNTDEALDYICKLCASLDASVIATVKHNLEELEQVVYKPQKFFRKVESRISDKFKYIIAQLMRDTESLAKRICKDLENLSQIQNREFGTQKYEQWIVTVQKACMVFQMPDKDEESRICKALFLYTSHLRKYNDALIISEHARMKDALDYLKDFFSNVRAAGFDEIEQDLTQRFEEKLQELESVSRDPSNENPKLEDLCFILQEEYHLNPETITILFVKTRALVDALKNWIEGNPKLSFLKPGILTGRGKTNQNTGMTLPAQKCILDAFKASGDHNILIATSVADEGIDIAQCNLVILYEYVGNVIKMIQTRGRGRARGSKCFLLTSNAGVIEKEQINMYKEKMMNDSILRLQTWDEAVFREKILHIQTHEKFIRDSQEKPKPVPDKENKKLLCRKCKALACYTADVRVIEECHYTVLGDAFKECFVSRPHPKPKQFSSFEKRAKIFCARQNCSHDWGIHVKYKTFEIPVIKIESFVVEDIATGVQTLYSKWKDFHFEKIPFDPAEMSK
Test: NMR titration

Kd: 1660 ± 1300 nM
B1: second CARD of human RIG-I (CARD2; residues 95–190) (domain or fragment, UniProt O95786 95-190, looked up)
chain: KKIEKLEEYRLLLKRLQPEFKTRIIPTDIISDLSECLINQECEEILQICSTKGMMAGAEKLVECLLRSDKENWPKTLKLALEKERNKFSELWIVEK
